The record followed here is patent US20140105931A1.

The target in test [1] is human CD81 (co-receptor on Huh-7.5 cells) (human) (UniProt P60033). Nature of the test: cell-based or functional assay.
Test [2] concerns the target GST-human CD81-LEL (human) (UniProt P60033). Nature of the test: ELISA, plate coated with GST-hCD81-LEL, eE2 detected with anti-human-Fc.
Test [3] has the same target. The test can be described thus: ELISA, plate coated with GST-CD81-LEL, 30-fold concentrated HCVpp, detection with 2C1 mAb, GST background subtracted, relative to wt (Cp7) HCVpp.

“And” between values parts separate entries of the source, which are not always exact repeats. Equal values may be shown once.

With “purified eE2-C17S (from UniProt P26660 384-664)”, the blocking of HCVcc (Cp7) infectivity of Huh-7.5 cells in test [1] was 60% and 70%.

As to “purified eE2-C6A (Fc tag removed) (from UniProt P26660 384-664)”, the blocking of HCVcc (Cp7) infectivity of Huh-7.5 cells in test [1] was found to be 25%.

On to “eE2-C6A (Fc-tagged, cell supernatant) (from UniProt P26660 384-664) (Fc fusion)”, for which, in test [2], the binding capacity relative to wild type eE2 is under 20%.

Take “purified eE2 (Fc tag removed) (from UniProt P26660 384-664)”: the blocking of HCVcc (Cp7) infectivity of Huh-7.5 cells in test [1] is 60% and 70%.

On to “HCVpp carrying E2 C6A (from UniProt P26660 384-750; P26660 192-383)”, for which the percentage of CD81 binding relative to the wild type in test [3] stood at 14.2%.
